In paper PMC5772059:

Biological target: N2Bus phosphorylated by PKA catalytic subunit or cGMP-activated PKG
Experiment: pull-down; GST pull-down: purified protein incubated with a GST-fusion protein immobilised on glutathione sepharose beads, 4 °C, 1.5 h; washes in high and low salt buffer; SDS-PAGE and western blot

fold binding against unphosphorylated N2Bus: 2 to 3 times
B1: recombinant human full-length PP5 (enzyme)
chain: MAMAEGERTECAEPPRDEPPADGALKRAEELKTQANDYFKAKDYENAIKFYSQAIELNPSNAIYYGNRSLAYLRTECYGYALGDATRAIELDKKYIKGYYRRAASNMALGKFRAALRDYETVVKVKPHDKDAKMKYQECNKIVKQKAFERAIAGDEHKRSVVDSLDIESMTIEDEYSGPKLEDGKVTISFMKELMQWYKDQKKLHRKCAYQILVQVKEVLSKLSTLVETTLKETEKITVCGDTHGQFYDLLNIFELNGLPSETNPYIFNGDFVDRGSFSVEVILTLFGFKLLYPDHFHLLRGNHETDNMNQIYGFEGEVKAKYTAQMYELFSEVFEWLPLAQCINGKVLIMHGGLFSEDGVTLDDIRKIERNRQPPDSGPMCDLLWSDPQPQNGRSISKRGVSCQFGPDVTKAFLEENNLDYIIRSHEVKAEGYEVAHGGRCVTVFSAPNYCDQMGNKASYIHLQGSDLRPQFHQFTAVPHPNVKPMAYANTLLQLGMM
